The labels stand for the following.
T1: recombinant human IL-12 (rhIL-12) (human, UniProt P29459 23-219; P29460 23-328)
T1 construct: disulfide-linked p35/p40 heterodimer (p70); also called IL-12 p70; rec. human IL12
T1 sequence (looked up) 1: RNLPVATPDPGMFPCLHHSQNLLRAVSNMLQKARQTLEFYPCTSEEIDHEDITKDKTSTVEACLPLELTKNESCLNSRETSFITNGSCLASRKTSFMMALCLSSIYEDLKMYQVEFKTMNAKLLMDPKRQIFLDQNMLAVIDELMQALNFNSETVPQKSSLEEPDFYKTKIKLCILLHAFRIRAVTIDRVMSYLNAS
T1 sequence (looked up) 2: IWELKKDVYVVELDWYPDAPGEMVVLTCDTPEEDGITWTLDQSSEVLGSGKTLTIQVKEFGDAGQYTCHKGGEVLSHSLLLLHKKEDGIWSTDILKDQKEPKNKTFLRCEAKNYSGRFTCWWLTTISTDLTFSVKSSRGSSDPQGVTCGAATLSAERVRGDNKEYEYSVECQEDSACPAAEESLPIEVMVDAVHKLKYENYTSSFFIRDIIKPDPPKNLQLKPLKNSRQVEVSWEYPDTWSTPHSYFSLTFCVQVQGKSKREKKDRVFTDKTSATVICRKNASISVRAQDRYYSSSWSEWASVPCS

T2: human IL-12 (human, UniProt P29459 23-219; P29460 23-328)
T2 construct: recombinant human IL-12 heterodimer (p35/p40, disulfide-linked); also called hIL-12; rhIL-12
T2 sequence (looked up) 1: T1 sequence (looked up) 1
T2 sequence (looked up) 2: T1 sequence (looked up) 2

B1: Y61 (scFv, V domains shown)
VH: QVQLVQSGGGVVQPGRSLRLSCAASGFTFSSYGMHWVRQAPGKGLEWVAFIRYDGSNKYYADSVKGRFTISRDNSKNTLYLQMKSLRAEDTAVYYCKTHGSHDNWGQGTMVTVSS
VL: SYVLTQPPSVSGTPGQRVTISCSGGRSNIGSNTVKWYQQLPGTAPKLLIYGNDQRPSGVPDRFSGSKSGTSASLAITGVQAEDEADYYCQSYDRGTHPALLFGTGTKVTVL
notes: also called Y61 scFv; clone Y61; not shown: scFv linker and any tags
B2: A4 (scFv, V domains shown)
VH: B1 VH
VL: B1 VL with T96R, H97N, L101T
notes: scFv clone
B3: L3.3R3M-B3 (scFv, V domains shown)
VH: B1 VH
VL: B1 VL with T96F, H97T, P98G, A99S, L100M, L101V
notes: scFv clone
B4: L3.3R3M-A3 (scFv, V domains shown)
VH: B1 VH
VL: B1 VL with T96F, H97T, P98G, A99S, L100M, L101V
notes: scFv clone
B5: L3.3R3M-G7 (scFv, V domains shown)
VH: B1 VH
VL: B1 VL with T96F, H97T, P98G, A99S, L100M, L101V
notes: scFv clone
B6: L3.3R3M-H6 (scFv, V domains shown)
VH: B1 VH
VL: B1 VL with T96N, H97W, A99N, L100S, L101N
notes: scFv clone
B7: 99-B11 (scFv, V domains shown)
VH: B1 VH
VL: B1 VL with R94S, T96Y, H97T, P98G, A99S, L100R, L101V
notes: scFv clone
B8: A12 (scFv, V domains shown)
VH: B1 VH
VL: B1 VL with H97T, A99R, L100P, L101M
notes: scFv clone
B9: 99-G7 (scFv, V domains shown)
VH: B1 VH
VL: B1 VL with D93L, R94K, G95S, T96R, H97A, P98F, A99S, L100R, L101V
notes: scFv clone
B10: 99-F11 (scFv, V domains shown)
VH: B1 VH
VL: B1 VL with R94S, T96F, H97T, P98G, A99S, L100R, L101V
notes: scFv clone
B11: AO3 (scFv, V domains shown)
VH: B1 VH
VL: B1 VL with A99L, L100T, L101M
notes: scFv clone; only the CDR3s are tied to it
B12: C6 (scFv, V domains shown)
VH: B1 VH
VL: B1 VL with T96Q, H97T, A99S, L100I, L101T
notes: scFv clone
B13: A5 (scFv, V domains shown)
VH: B1 VH
VL: B1 VL with A99S, L100M
notes: scFv clone
B14: L3.3R3M-G8 (scFv, V domains shown)
VH: B1 VH
VL: B1 VL with T96S, H97Y, L101R
notes: scFv clone
B15: 99-E9 (scFv, V domains shown)
VH: B1 VH
VL: B1 VL with R94S, T96F, H97T, P98G, A99S, L100R, L101V
notes: scFv clone
B16: L3.3R3M-H11 (scFv, V domains shown)
VH: B1 VH
VL: B1 VL with T96M, H97I, L101T
notes: scFv clone
B17: 99-G11 (scFv, V domains shown)
VH: B1 VH
VL: B1 VL with R94S, G95R, T96F, H97T, P98G, A99S, L100R, L101V
notes: scFv clone
B18: 99-C11 (scFv, V domains shown)
VH: B1 VH
VL: B1 VL with R94S, T96F, H97T, P98G, A99S, L100R, L101V
notes: scFv clone
B19: 78-35 (scFv, V domains shown)
VH: B1 VH with K97T, H99S, H102Y, N104Y
VL: B1 VL with R94S, G95S, T96L, H97T, P98G, A99S, L100R, L101V
notes: scFv
B20: 73-B7 (scFv, V domains shown)
VH: B1 VH with K97T, H102Q
VL: SYVLTQPPSVSGTPGQRVTISCSGGRSNIGSNTVKWYQQLPGTAPKLLIYGNDQRPSGVPDRFSGSKSGTSASLAITGVQAEDEADYYCQSYDSSLRGSRVFGTGTKVTVLG
B21: C8 (scFv, V domains shown)
VH: B1 VH
VL: B1 VL with R94S, H97S, P98N, A99L, L101P
notes: scFv
B22: 170-23 (scFv, V domains shown)
V domain 1: B1 VH with K97T
V domain 2: B1 VL with T96F, H97T, P98G, L100R, L101V, F102W
notes: scFv
B23: 170-25 (scFv, V domains shown)
VH: B1 VH with K97T, H102Q, N104T
VL: B1 VL with R94S, G95S, T96L, H97R, P98G, A99S, L100R, L101V
notes: scFv
B24: M2 A4 (scFv, V domains shown)
VH: B1 VH
VL: B1 VL with R94S, T96F, H97P, P98G, A99S, L100R, L101V
notes: scFv
B25: C12 (scFv, V domains shown)
VH: B1 VH
VL: B1 VL with T96L, H97R, P98V, A99Q, L100A, L101P
notes: scFv
B26: M2 C3 (scFv, V domains shown)
VH: B1 VH
VL: B1 VL with R94T, T96L, H97T, P98G, A99S, L100R, L101V
notes: scFv
B27: C7 (scFv, V domains shown)
VH: B1 VH
VL: B1 VL with T96I, H97P, P98T, A99S, L100Y
notes: scFv
B28: 136-24 (scFv, V domains shown)
VH: B1 VH with K97T
VL: B1 VL with R94N, G95A, T96V, H97T, P98A, A99S, L100K, L101V
notes: scFv
B29: 149-9 (scFv, V domains shown)
VH: B1 VH with Q107H
VL: B1 VL with D93E, T96F, H97T, P98G, A99S, L100M, L101V
notes: scFv
B30: M2 B4 (scFv, V domains shown)
VH: B1 VH
VL: B1 VL with R94I, T96L, H97T, P98G, A99S, L100R, L101V
notes: scFv
B31: C9 (scFv, V domains shown)
VH: B1 VH
VL: B1 VL with T96P, H97T, P98H, A99L, L100P, L101H
notes: scFv
B32: 101-11 IgG1 (antibody, V domains shown)
VH: B1 VH with K97T
VL: B1 VL with T96F, H97T, P98G, A99S, L100R, L101V
notes: IgG1
B33: Y61-L50Y (scFv, V domains shown)
VH: B1 VH
VL: B1 VL with S1Q, Y2S, T13A, G25S, G51Y, V79L

The values that follow come from patent US20150037348A1 (AbbVie / Abbott, published 2015).

Changes are numbered by the printed parent chain. Names and notes keep the numbering of the source.

Broadly, the koff is the first-order rate constant of dissociation. For orientation: IC50 means the concentration at which inhibition is half-maximal.

One assay concerns the target T1, recombinant human IL-12 (rhIL-12). Description: BIAcore SPR, IL-12 on chip. (In SPR one partner is held on a chip, and binding of the other changes the refractive index at the surface.)
Regarding B1, the off-rate (koff) is 0.000275 s⁻¹.

On to B2, for which the koff worked out at 0.00063 s⁻¹.

As for B3, the dissociation rate constant (koff) is 5.51 s⁻¹.

For the molecule B4, the koff turned out to be 5.37 s⁻¹.

For B5, the koff was found to be 4.24 s⁻¹.

For the molecule B6, the koff was determined as 5.69 s⁻¹.

As to B7, the koff stood at 0.0054 s⁻¹.

With B8, the koff worked out at 0.000557 s⁻¹.

For B9, the koff came to 0.0048 s⁻¹.

On to B10, for which the koff was found to be 0.0054 s⁻¹.

As to B11, the koff turned out to be 0.000304 s⁻¹.

Consider B12, for which the koff was determined as 0.00107 s⁻¹.

For B13, the koff amounted to 0.00045 s⁻¹.

As to B14, the koff was determined as 5.55 s⁻¹.

In the case of B15, the koff was determined as 0.0054 s⁻¹.

Turning to B16, the koff is 3.95 s⁻¹.

As to B17, the koff is 0.0043 s⁻¹.

For B18, the koff was found to be 0.0057 s⁻¹.

A further assay addresses T2, human IL-12. In words: SPR (BIAcore), IL-12 chip. The text has this: The system utilizes the optical properties of SPR to detect alterations in protein concentrations within a dextran biosensor matrix. Proteins are covalently bound to the dextran matrix at known concentrations. […] To determine the off rate (koff), on rate (kₒₙ), association rate (Ka) and dissociation rate (Kd) constants, BIAcore kinetic evaluation software (version 2.1) was used.
B19 showed a koff of 0.0499 s⁻¹.

The molecule B20 displayed a koff of 0.0025 s⁻¹.

For B21, the koff is 0.00536 s⁻¹.

The molecule B22 yielded an off-rate (koff) of 0.001 s⁻¹.

Turning to B23, the koff was determined as 0.0005 s⁻¹.

Consider B24, for which the off-rate (koff) was determined as 0.00849 s⁻¹.

For B25, the koff came out at 0.00585 s⁻¹.

B26 returned an off-rate (koff) of 0.0462 s⁻¹.

Consider B27, for which the koff stood at 0.00583 s⁻¹.

As to B28, the koff came to 0.00089 s⁻¹.

B29 came in with a koff of 0.00354 s⁻¹.

In turn, B30 returned a koff of 0.0442 s⁻¹.

Consider B31, for which the koff amounted to 0.00397 s⁻¹.

A further assay addresses T2, human IL-12. Description: RB assay: 125I-hIL-12 binding to PHA blasts. Here is the method:
(§1) PHA blast cells isolated as described above, were washed once and resuspended in binding buffer to a cell density of 2×10⁷ cells/ml. […] The cell pellet was examined for cell bound radioactivity using a gamma counter. […] Incubations were carried out in duplicate.
In the case of B19, the IC50 came to 400 nM.

Consider B20, for which the IC50 came out at 7 nM.

On to B32, for which the half-inhibitory concentration (IC50) turned out to be 1.6 nM.

For the molecule B22, the IC50 came out at 0.2 nM.

With B23, the IC50 was 0.05 nM.

B28 yielded a concentration for half-maximal inhibition (IC50) of 1 nM.

B29 displayed an IC50 of 0.18 nM.

The target of a further assay is T1, recombinant human IL-12 (rhIL-12). In words: cell-based or functional assay.
With B1, the “PHA assay IC50” value was 0.14 nM.

Turning to B33, the “IFN gamma IC50” value was 0.02 nM.

As to B11, the “PHA assay IC50” value is 0.4 nM.

For the molecule B12, the “PHA assay IC50” value was found to be 10 nM.

The next assay shares this target. In words: receptor binding assay, 125I-hIL-12 on PHA blasts. Here is the method: as §1
Consider B1, for which the IC50 was 0.04 nM.

Regarding B2, the 50% inhibitory concentration (IC50) was 0.25 nM.

On to B33, for which the IC50 came out at 0.02 nM.

B8: the IC50 is 0.25 nM.

As for B11, the IC50 turned out to be 0.03 nM.

Take B12: the IC50 stood at 0.35 nM.

Consider B13, for which the IC50 was 0.066 nM.
